Experiments:
[1] = target: CNX-his antigen (Genscript) (human) (UniProt P27824); assay: ELISA with serial dilutions of the antibody on coated His-tagged human CNX
[2] = target: CNX-mcherry fluorescent protein expressed in Huh7 cells; assay: immunofluorescence, Huh7 CNX-mcherry cells minus plain Huh7 cells, anti-human Alexa 647
[3] = target: CNX-mcherry fluorescent protein expressed in Huh7 cells; assay: immunofluorescence, Huh7 CNX-mcherry cells minus plain Huh7 cells, Alexa-coupled secondary
[4] = target: Recombinant human CANX protein fused with the Fc region of human IgG1 at the C-terminus (HuCANX_hFc) (human) (UniProt P27824); assay: ELISA, IgG1 coated 2 ug/ml, biotinylated antigen titrated (EC50 is of the antigen), streptavidin-HRP; curve is flat, value lies beyond the range shown
Recombinant human CANX protein fused with the Fc region of human IgG1 at the C-terminus (HuCANX_hFc) (human), sequence (P27824 21-481 limits assumed): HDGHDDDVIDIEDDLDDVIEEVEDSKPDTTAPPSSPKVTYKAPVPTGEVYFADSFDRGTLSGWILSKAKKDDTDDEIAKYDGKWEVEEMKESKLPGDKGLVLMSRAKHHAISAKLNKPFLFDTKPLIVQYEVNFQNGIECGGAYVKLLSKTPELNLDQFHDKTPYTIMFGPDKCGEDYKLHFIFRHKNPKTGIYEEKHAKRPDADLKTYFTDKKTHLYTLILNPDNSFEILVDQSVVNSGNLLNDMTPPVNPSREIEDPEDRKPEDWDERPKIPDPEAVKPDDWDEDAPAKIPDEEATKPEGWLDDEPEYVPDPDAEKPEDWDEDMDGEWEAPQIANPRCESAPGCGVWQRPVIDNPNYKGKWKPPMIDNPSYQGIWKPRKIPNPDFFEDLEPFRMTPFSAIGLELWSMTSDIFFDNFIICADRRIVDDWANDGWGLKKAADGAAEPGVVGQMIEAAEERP

CNX-mcherry fluorescent protein expressed in Huh7 cells, sequence (P27824 21-592): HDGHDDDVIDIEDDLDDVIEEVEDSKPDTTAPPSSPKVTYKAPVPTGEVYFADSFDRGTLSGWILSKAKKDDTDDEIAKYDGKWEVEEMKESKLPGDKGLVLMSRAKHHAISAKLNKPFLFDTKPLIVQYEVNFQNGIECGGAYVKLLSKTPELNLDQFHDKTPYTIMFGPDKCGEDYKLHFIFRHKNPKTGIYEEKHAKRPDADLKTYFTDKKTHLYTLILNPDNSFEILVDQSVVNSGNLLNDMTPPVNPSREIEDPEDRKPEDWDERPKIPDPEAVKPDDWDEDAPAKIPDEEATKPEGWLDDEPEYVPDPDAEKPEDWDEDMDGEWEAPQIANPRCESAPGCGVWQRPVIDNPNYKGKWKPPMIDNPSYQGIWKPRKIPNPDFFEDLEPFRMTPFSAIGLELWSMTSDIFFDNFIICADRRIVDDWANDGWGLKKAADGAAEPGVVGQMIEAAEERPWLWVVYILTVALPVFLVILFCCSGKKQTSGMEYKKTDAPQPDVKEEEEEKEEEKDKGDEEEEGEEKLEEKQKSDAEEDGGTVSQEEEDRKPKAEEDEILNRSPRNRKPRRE
CNX-his antigen (Genscript) (human), sequence (P27824 21-481 limits assumed): as the sequence (P27824 21-481 limits assumed) above

## CNX ab10286 (Abcam) (antibody)
[1]
  EC50 (read off the curve): 0.2 µg/mL

## negative control human IgG (antibody)
[2]
  Intensity (CNX+ cells - CNX -ve): 107

## CNX antibody ab22595 (Abcam)
[3]
  Intensity (CNX+ cells - CNX -ve): 3630

## Neg Control (antibody)
[4]
  EC50: 147 nM

— patent publication US20260250378A1
